Columns and labels:
[1] = biological target: FcγRIIIA 158V, soluble (UniProt P08637); assay: BIAcore, 2B6 captured by soluble CD32B
[2] = biological target: FcγRIIIA 158F, soluble (UniProt P08637); assay: BIAcore, 2B6 captured by soluble CD32B
[3] = biological target: FcγRIIIA (UniProt P08637); assay: ELISA
[4] = biological target: soluble monomeric FcγRIIIA, the extracellular region of FcγRIIIA joined to the linker-AVITAG sequence (UniProt P08637); assay: yeast display FACS; 0.1 µM biotinylated FcγRIIIA-linker-avitag chased with unlabeled monomer
soluble monomeric FcγRIIIA, the extracellular region of FcγRIIIA joined to the linker-AVITAG sequence, sequence (P08637 17-208 limits assumed): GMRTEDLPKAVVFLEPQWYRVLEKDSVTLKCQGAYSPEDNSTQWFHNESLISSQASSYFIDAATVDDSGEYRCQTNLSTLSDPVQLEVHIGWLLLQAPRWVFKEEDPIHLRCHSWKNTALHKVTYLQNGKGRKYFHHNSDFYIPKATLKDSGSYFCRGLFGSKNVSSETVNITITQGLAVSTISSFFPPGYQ

FcγRIIIA 158V, soluble, sequence (P08637 17-208 F176V limits assumed): as the sequence (P08637 17-208 limits assumed) above, with F160V counted along it
FcγRIIIA 158F, soluble, sequence (P08637 17-208 limits assumed): as the sequence (P08637 17-208 limits assumed) above
FcγRIIIA, sequence (P08637 17-208 limits assumed): as above

Substance	koff [1] [s⁻¹]	koff [2] [s⁻¹]	ELISA binding increase vs wt [3] [x]	loss of cell staining after 1 minute with unlabeled FcγRIIIA [4] [%]
ch-mAb 2B6 (chimeric anti-CD32B), wild-type IgG1 Fc (antibody)	0.192	0.434		
ch4-4-20 P396L (from UniProt P01857 1-330) (antibody)			1	50

From patent US20080138349A1
